Test results taken from PMC5567573, “Identification, heterologous expression and characterization of a dye-decolorizing peroxidase of Pleurotus sapidus” (AMB Express, 2017).

Tests used:
Experiment in all cases: purified protein
[1] = substrate: COc1ccccc1O; settings: H2O2 62.5 µM, pH 4.5, 50 mM sodium acetate, 30 °C, 4.5 nM enzyme
[2] = substrate: COc1cccc(OC)c1O; format: biochemical, Pleurotus sapidus; settings: H2O2 62.5 µM, pH 4.5, 50 mM sodium acetate, 30 °C, 1.8 nM enzyme
[3] = substrate: CCn1c(=NN=c2sc3cc(S(=O)(=O)O)ccc3n2CC)sc2cc(S(=O)(=O)O)ccc21; format: biochemical, Pleurotus sapidus; settings: H2O2 125 µM, pH 3.8, 100 mM sodium acetate, 30 °C, 0.27 nM enzyme

B1: rPsaDyP (recombinant DyP-type peroxidase of Pleurotus sapidus) (Pleurotus sapidus) (protein)
chain: ATNGTFLPLEEIQGDIMIGMRKPKEIFFFYSLQNPRKFKSVLAKLIYPHITTTAQMVCTTCAQPSAMLNVAWTSQGLRKLGVLDNLGDPYFAMGQLSDAAALGDTDPSTTWAPGLYANKTDGAFLIAAKDWEPIDTLLNQMKAWLGDAIVETHSNRGAVRPGDAAGKEHFGWLDGFIQPAVAGFATSTYPGQQLLLPGTLLTKEIGDPRRAARPAWTKWGSFMAYRQLQELVPEFDDYLMQEAALIQDSSRSVRERADLLGARMFGRWKSGTPLDLAPEKDDPSIGPNLMLNNNFDFNHPAPFNINTNQSYCPFSAHIRKIRPRADQGNQNLKNQMIRASIPYGEELSDDEINNKKTGTERGVAFVTYQSDLGSGFHFQQAEWANNVNIPTGKSDPTPGFDPIVGQNSGKPLVVSGIDYTDLNHDLTFMSFVVSKGGDYFFSPSMSAILHKIAA
[1]
  Km: 713 µM
  Vmax: 21 µM/min
  kcat: 74 s⁻¹
  kcat/Km: 100000 M⁻¹ s⁻¹
[2]
  Km: 1227 µM
  Vmax: 6.6 µM/min
  kcat: 60 s⁻¹
  kcat/Km: 49000 M⁻¹ s⁻¹
[3]
  Km: 99 µM
  Vmax: 6 µM/min
  kcat: 375 s⁻¹
  kcat/Km: 3.8e+06 M⁻¹ s⁻¹
